According to patent US20090263323A1:

Molecular target: NADPH oxidase 3 (NOX3)
Assay: cell-based or functional assay

PMA-induced superoxide generation of NOX3 (co-transfected HEK293 cells): 2 fold
Substance: p67^phox/NOXA2
